Assay results published in patent US6528275B1, “Substrates and inhibitors of proteolytic enzymes” (Peptide Therapeutics Limited, priority 1996, dated 2003).

Tests used:
Assay in all cases: Der pI substrate assay with FRET peptides (fluorescence, Km, kcat/Km)
Assay type in all cases: biochemical, house dust mite
Details in all cases: other: purified Der pI; peptides SEQ ID Nos. 1-76; pH 8.25
[1] = substrate: CCCC[C@H](NC(=O)[C@H](C)NC(=O)[C@@H](NC(=O)c1ccccc1N)C(C)C)C(=O)N[C@@H](CO)C(=O)N[C@@H](Cc1ccc(O)c([N+](=O)[O-])c1)C(=O)N[C@@H](CC(=O)O)C(N)=O
Method: (§1) Using the general techniques described above, the following compounds were prepared and assayed as potential substrates against Der pI purified as described above.
(§2) Each mixture of 20 compounds in the libraries of the apparatus described herein was screened at a concentration of 1.0 μM per compound in an assay against the cysteinyl protease Der pI.
(§3) Plate assays were carried out in 96 well plate format, using 0.1 ug of Der pI per 100 μL assay volume in each well and using 20 μM of the substrate. All assays were performed in Assay Buffer (AB; 50 mM potassium phosphate, pH 8.25 containing 1 mM ethylenediaminetetraacetic acid (EDTA) and 1 mM dithiothreitol (DTT). The Der pI enzyme is pre-activated by addition of DTT and this in incubated at room temperature for 5 min. prior to initiation of the assay. As an example for the screening methodology, each well contains a 5 μL of a 20 μM solution of the test compound in DMSO, 10 μL of a 200 μM aqueous solution of the substrate, 2, and 85 μL of Der pI in AB is added to initiate the reaction. Enzyme activity is monitored by fluorescence using 320 nm for excitation and 420 nm for the emission wavelengths using a Labsystems Fluroskan Ascent machine. Kinetic measurements were carried out using a Hitachi F-4500 Fluorescence Spectrophotometer.

[2] = substrate: CC(C)[C@H](NC(=O)c1ccccc1N)C(=O)N[C@@H](C)C(=O)N[C@@H](Cc1cccnc1)C(=O)N[C@@H](CO)C(=O)N[C@@H](Cc1ccc(O)c([N+](=O)[O-])c1)C(=O)N[C@@H](CC(=O)O)C(N)=O
Method: as §1, §2, §3

[3] = substrate: CC(C)CC[C@H](NC(=O)[C@H](C)NC(=O)[C@H](Cc1ccc(-c2ccccc2)cc1)NC(=O)c1ccccc1N)C(=O)N[C@H](C(=O)N[C@@H](Cc1ccc(O)c([N+](=O)[O-])c1)C(=O)N[C@@H](CC(=O)O)C(N)=O)C(C)(C)C
Method: as §1, §2, §3

[4] = substrate: CC(C)CC[C@H](NC(=O)[C@H](C)NC(=O)[C@H](Cc1ccc(-c2ccccc2)cc1)NC(=O)c1ccccc1N)C(=O)N[C@H](C(=O)N[C@@H](Cc1ccc(O)c([N+](=O)[O-])c1)C(=O)N[C@@H](CC(=O)O)C(N)=O)[C@@H](C)O
Method: as §1, §2, §3

B1: Der pI (Dermatophagoides pteronyssinus) (protein)
chain: TNACSINGNAPAEIDLRQMRTVTPIRMQGGCGSCWAFSGVAATESAYLAYRNQSLDLAEQELVDCASQHGCHGDTIPRGIEYIQHNGVVQESYYRYVAREQSCRRPNAQRFGISNYCQIYPPNVNKIREALAQTHSAIAVIIGIKDLDAFRHYDGRTIIQRDNGYQPNYHAVNIVGYSNAQGVDYWIVRNSWDTNWGDNGYGYFAANIDLMMIEEYPYVVIL
notes: tissue SmithKline-Beecham, U.K (crude mite extract); host or cells: crude house dust mite extract
Km [1]: 12 µM
Km [2]: 10 µM
Km [3]: 4 µM
Km [4]: 2.5 µM
